This passage reports Kd results from PMC7967050.

The assay has as its target Recombinant human CD38 extracellular domain (amino acids 43–300, hCD38-ECD) (human) (UniProt P28907). As to the kind of experiment: BLI; Octet Red96, room temperature; biotin conjugated hCD38-ECD captured on SA biosensor; scFv in PBS, 0.02% Tween-20, 0.05% BSA, pH 7.4; association 300 s, dissociation 1200 s; 1:1 Langmuir model; for RP02 (biphasic dissociation) only the initial 0-330 s fitted, apparent KD. (In BLI a coated tip is dipped into the sample, and binding shifts an interference pattern.)

B1: anti-CD38 scFv antibody RP02 (scFv, V domains shown)
VH: PAQLVESGPGLVKPSGTLSLTCAVSGGSISSSNWWSWVRQPPGKGLEWIGEIYHSGSTNYNPSLKSRVTISVDKSKNQFSLKLSSVTAADTAVYYCAREDYYYYMDVWGKGTTVTVQS
VL: QSVLTQPPSVSAAPGQKVTISCSGSSSNIGNNYVSWYQQLPGTAPKLLIYDNNKRPSGIPDRFSGSKSGTSATLGITGLQTGDEADYYCGTWDSSLSAGVFGGGTKLTVL
Consider B1, for which the Kd is 8.6 nM.
